Data published in paper PMC11722432.

Biological target: dynein-dynactin complex (pig brain dynein with pig brain dynactin) (pig (endogenous in pig brain)) (UniProt F2Z5G5)
Experiment: negative-stain EM

Substance “full-length BicdR1 (from UniProt A0JNT9 1-577) (natural protein)” has a Kd of 5.11 µM.
